Here are results for 6 molecules from paper PMC7077846 (PLoS Biology, 2020).

The target of assay [1] is human 20S proteasome core particle (human) (UniProt P60900).
For assay [2], the target named is T1, human proteasome activator 200 (PA200) (human, UniProt Q14997 1-1843).
T1 construct: Carries the cofactors 5,6[PP]2-InsP4 and InsP6 in its two openings; The results say 1,844 residues, the methods 1-1,843; source: Trichoplusia ni (Hi5) insect cells, baculovirus (Bac-to-Bac), purified (Ni-NTA, gel filtration on Superose 6)
In words: cryo-EM structure; 3 μl 20S-CP (approximately 1.4 mg/ml) incubated with 6 μl PA200 (approximately 0.44 mg/ml) in ice for 1 h; single-capped PA200-20S particles selected; 2.72 Å. The settings on record: both partners purified.

T1 sequence (Q14997 whole entry): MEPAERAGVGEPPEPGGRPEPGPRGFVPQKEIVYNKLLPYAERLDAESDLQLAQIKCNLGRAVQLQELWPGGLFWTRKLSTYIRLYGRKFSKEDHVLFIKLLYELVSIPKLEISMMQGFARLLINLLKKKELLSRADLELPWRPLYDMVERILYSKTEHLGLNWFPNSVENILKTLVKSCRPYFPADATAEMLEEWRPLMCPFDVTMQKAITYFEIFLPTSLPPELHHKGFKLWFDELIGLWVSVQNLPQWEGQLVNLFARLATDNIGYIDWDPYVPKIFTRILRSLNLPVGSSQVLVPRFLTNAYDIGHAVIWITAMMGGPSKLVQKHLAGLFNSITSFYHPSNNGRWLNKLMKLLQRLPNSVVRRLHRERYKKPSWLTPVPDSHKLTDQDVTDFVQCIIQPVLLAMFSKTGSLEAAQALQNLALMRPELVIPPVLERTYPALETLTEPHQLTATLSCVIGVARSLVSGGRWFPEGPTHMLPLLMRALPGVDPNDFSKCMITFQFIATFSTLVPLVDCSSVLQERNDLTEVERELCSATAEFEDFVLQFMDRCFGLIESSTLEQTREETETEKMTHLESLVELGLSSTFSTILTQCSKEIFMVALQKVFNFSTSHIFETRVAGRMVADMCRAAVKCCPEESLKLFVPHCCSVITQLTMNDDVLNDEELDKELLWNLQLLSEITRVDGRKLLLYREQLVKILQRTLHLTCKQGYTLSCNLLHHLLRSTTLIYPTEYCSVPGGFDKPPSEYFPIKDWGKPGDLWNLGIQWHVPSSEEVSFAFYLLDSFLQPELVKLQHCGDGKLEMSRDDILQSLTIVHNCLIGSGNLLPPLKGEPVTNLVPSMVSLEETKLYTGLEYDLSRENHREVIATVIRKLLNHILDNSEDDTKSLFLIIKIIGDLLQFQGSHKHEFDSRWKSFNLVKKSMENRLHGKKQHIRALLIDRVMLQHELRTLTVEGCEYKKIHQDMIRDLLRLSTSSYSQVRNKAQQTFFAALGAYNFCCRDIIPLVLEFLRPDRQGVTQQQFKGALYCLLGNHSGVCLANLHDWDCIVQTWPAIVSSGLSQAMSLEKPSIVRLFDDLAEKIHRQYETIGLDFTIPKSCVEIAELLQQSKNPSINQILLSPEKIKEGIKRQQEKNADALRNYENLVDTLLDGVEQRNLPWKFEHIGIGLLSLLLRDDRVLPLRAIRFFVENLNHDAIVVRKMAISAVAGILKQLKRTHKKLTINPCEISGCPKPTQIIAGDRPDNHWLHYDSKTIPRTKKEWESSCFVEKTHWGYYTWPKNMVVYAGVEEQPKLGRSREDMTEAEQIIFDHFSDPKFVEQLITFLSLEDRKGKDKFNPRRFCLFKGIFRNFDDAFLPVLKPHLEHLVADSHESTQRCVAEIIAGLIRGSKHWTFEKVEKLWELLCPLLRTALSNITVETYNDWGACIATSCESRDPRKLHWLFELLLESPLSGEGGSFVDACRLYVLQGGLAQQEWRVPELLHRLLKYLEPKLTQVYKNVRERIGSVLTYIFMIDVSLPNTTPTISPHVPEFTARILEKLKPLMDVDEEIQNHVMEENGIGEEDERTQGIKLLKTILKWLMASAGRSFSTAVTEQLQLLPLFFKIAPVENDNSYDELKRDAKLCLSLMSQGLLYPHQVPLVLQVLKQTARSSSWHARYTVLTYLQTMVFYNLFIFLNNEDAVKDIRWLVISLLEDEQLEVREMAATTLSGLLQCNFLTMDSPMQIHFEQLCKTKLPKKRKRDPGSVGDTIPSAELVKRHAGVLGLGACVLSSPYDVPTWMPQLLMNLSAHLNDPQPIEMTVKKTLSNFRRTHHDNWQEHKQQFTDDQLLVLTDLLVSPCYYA
Sequence of human 20S proteasome core particle (human) (P60900 whole entry, looked up): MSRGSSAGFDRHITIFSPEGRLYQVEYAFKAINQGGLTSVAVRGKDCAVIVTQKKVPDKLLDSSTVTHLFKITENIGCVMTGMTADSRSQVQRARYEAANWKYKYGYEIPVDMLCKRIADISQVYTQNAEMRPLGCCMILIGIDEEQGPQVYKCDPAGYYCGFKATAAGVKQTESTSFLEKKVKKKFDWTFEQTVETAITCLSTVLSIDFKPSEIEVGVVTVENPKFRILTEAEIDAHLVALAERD

Consider “human proteasome activator 200 (PA200) (from UniProt Q14997 1-1843) (natural protein)”, for which the Vmax of cleavage of Suc-LLVY-AMC (chymotryptic-like activity) by PA200-20S, 2.5 nM; 20S alone 3.14 μM/min in assay [1] was 11.4 µM/min.

B1: human 20S proteasome subunit α7 (natural protein)
chain: MSSIGTGYDLSASTFSPDGRVFQVEYAMKAVENSSTAIGIRCKDGVVFGVEKLVLSKLYEEGSNKRLFNVDRHVGMAVAGLLADARSLADIAREEASNFRSNFGYNIPLKHLADRVAMYVHAYTLYSAVRPFGCSFMLGSYSVNDGAQLYMIDPSGVSYGYWGCAIGKARQAAKTEIEKLQMKEMTCRDIVKEVAKIIYIVHDEVKDKAFELELSWVGELTNGRHEIVPKDIREEAEKYAKESLKEEDESDDDNM
notes: 20S proteasome subunit α7, human; named only as α7; Stood in the experiment as a subunit of the whole 20S core particle; source: bought: Boston Biochem, as part of the human 20S proteasome
In the case of B1, in assay [2], the binding result was “binds”.

B2: human 20S proteasome subunit α4 (natural protein)
chain: MSYDRAITVFSPDGHLFQVEYAQEAVKKGSTAVGVRGRDIVVLGVEKKSVAKLQDERTVRKICALDDNVCMAFAGLTADARIVINRARVECQSHRLTVEDPVTVEYITRYIASLKQRYTQSNGRRPFGISALIVGFDFDGTPRLYQTDPSGTYHAWKANAIGRGAKSVREFLEKNYTDEAIETDDLTIKLVIKALLEVVQSGGKNIELAVMRRDQSLKILNPEEIEKYVAEIEKEKEENEKKKQKKAS
notes: 20S proteasome subunit α4, human; named only as α4; Stood in the experiment as a subunit of the whole 20S core particle; source: bought: Boston Biochem, as part of the human 20S proteasome
As for B2, the binding result in assay [2] is listed as “binds”.

B3: human 20S proteasome subunit α2 (natural protein)
chain: MAERGYSFSLTTFSPSGKLVQIEYALAAVAGGAPSVGIKAANGVVLATEKKQKSILYDERSVHKVEPITKHIGLVYSGMGPDYRVLVHRARKLAQQYYLVYQEPIPTAQLVQRVASVMQEYTQSGGVRPFGVSLLICGWNEGRPYLFQSDPSGAYFAWKATAMGKNYVNGKTFLEKRYNEDLELEDAIHTAILTLKESFEGQMTEDNIEVGICNEAGFRRLTPTEVKDYLAAIA
notes: 20S proteasome subunit α2, human; named only as α2; Stood in the experiment as a subunit of the whole 20S core particle; source: bought: Boston Biochem, as part of the human 20S proteasome
In the case of B3, the binding result in assay [2] is “binds”.

B4: human 20S proteasome subunit α3 (natural protein)
chain: MSRRYDSRTTIFSPEGRLYQVEYAMEAIGHAGTCLGILANDGVLLAAERRNIHKLLDEVFFSEKIYKLNEDMACSVAGITSDANVLTNELRLIAQRYLLQYQEPIPCEQLVTALCDIKQAYTQFGGKRPFGVSLLYIGWDKHYGFQLYQSDPSGNYGGWKATCIGNNSAAAVSMLKQDYKEGEMTLKSALALAIKVLNKTMDVSKLSAEKVEIATLTRENGKTVIRVLKQKEVEQLIKKHEEEEAKAEREKKEKEQKEKDK
notes: 20S proteasome subunit α3, human; named only as α3; Stood in the experiment as a subunit of the whole 20S core particle; source: bought: Boston Biochem, as part of the human 20S proteasome
With B4, the binding result in assay [2] is “binds”.

B5: human 20S proteasome subunit α5 (natural protein)
chain: MFLTRSEYDRGVNTFSPEGRLFQVEYAIEAIKLGSTAIGIQTSEGVCLAVEKRITSPLMEPSSIEKIVEIDAHIGCAMSGLIADAKTLIDKARVETQNHWFTYNETMTVESVTQAVSNLALQFGEEDADPGAMSRPFGVALLFGGVDEKGPQLFHMDPSGTFVQCDARAIGSASEGAQSSLQEVYHKSMTLKEAIKSSLIILKQVMEEKLNATNIELATVQPGQNFHMFTKEELEEVIKDI
notes: 20S proteasome subunit α5, human; named only as α5; Stood in the experiment as a subunit of the whole 20S core particle; source: bought: Boston Biochem, as part of the human 20S proteasome
With B5, the binding result in assay [2] is recorded as “binds”.
